According to article PMC12796238:
Read-outs that look alike come from different tables or passages of the source.

Legend:
[1] = target: Undamaged nucleosome core particle (Cy3-labeled human histone octamer on 191 bp Widom 601 DNA) (human) (UniProt P62807); assay: single-molecule fluorescence with optical tweezers
[2] = target: Undamaged nucleosome core particle (Cy3-labeled human histone octamer on 191 bp Widom 601 DNA) (human) (UniProt P62807); assay: single-molecule fluorescence with optical tweezers; remark: listed apart in the source

YFP-PARP1 (poly(ADP-ribose) polymerase 1, wild type), sequence (P09874 whole entry): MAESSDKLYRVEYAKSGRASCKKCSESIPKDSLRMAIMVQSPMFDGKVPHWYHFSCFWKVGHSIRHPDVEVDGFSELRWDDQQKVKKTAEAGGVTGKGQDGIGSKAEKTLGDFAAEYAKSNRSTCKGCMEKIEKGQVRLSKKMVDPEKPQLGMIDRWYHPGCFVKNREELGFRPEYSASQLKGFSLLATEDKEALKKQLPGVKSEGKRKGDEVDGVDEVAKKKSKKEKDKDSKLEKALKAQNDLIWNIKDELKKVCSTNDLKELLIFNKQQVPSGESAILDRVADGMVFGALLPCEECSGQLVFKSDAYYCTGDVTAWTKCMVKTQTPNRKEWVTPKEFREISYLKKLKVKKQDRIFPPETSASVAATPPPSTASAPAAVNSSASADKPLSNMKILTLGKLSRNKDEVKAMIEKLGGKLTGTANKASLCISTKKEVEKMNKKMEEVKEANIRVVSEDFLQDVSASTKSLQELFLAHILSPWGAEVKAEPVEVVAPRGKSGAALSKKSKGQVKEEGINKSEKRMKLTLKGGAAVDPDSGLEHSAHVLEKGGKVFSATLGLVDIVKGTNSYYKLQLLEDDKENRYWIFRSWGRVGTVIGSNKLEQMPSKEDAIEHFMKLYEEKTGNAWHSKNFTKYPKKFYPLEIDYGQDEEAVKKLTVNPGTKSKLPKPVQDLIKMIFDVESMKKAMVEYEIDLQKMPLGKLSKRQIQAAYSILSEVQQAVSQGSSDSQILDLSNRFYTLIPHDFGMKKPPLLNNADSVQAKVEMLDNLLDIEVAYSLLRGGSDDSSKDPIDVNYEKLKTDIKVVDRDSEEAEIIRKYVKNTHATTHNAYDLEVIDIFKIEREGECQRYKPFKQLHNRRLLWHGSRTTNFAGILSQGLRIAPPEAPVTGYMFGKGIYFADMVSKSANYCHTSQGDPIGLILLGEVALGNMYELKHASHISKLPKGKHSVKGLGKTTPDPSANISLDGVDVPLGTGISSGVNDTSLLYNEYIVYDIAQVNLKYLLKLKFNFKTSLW

Substance	lifetime [1]	Kd [1]	Kd [2]
HaloTag-PARP1 H862A/Y896A/E988A (catalytically dead PARP1) (from UniProt P09874 1-1014) (enzyme)	56 s	–	–
YFP-PARP1 (poly(ADP-ribose) polymerase 1, wild type) (from UniProt P09874 1-1014) (enzyme)	2.5 s	10.2 nM	1 nM
